1 substance from publication PMC7824211 can be followed below.

This assay deals with recombinant HA Victoria (B/Brisbane/60/2008) fused to an HIS-Tag (influenza B virus B/Brisbane/60/2008 (Victoria lineage)). The assay can be described thus: SPR.

Regarding “NKp46-Ig (extracellular portion of human NKp46 fused to the Fc portion of human IgG1) (from UniProt O76036 22-258) (Fc fusion)”, the fold lower affinity than to the HA of IAV came to 7 fold.
